For assay [1], the target named is recombinant human domain 1-3His6 of the cation-independent mannose-6-phosphate receptor (human) (UniProt P11717). The assay can be described thus: BLI exp 2, dissoc pH 5, bivalent model.
Assay [2] has the same target. Put plainly: BLI exp 1, dissoc pH 7, bivalent model.
The target is the same in assay [3]. Put plainly: BLI exp 2, dissoc pH 6, bivalent model.
For assay [4] the target is unchanged. Put plainly: BLI at pH 7.4, bivalent model.
Assay [5] has as its target human cation-independent mannose-6-phosphate receptor, native, on cells (human) (UniProt P11717). Put plainly: flow cytometry on HepG2 cells, titration of the anti-CI-M6PR 2G11 antibody (Abcam ab2733) [lower graph]. On the technique in general: Flow cytometry measures light scatter and fluorescence of single cells or particles in a stream.
The target in assay [6] is recombinant human domain 1-3His6 of the cation-independent mannose-6-phosphate receptor (human) (UniProt P11717). The assay can be described thus: BLI exp 2, dissoc pH 7.4, bivalent model.
For assay [7] the target is unchanged. The assay can be described thus: BLI exp 1, dissoc pH 7.4, bivalent model.
Assay [8] deals with human cation-independent mannose-6-phosphate receptor, native, on cells (human) (UniProt P11717). Put plainly: flow cytometry on HEK293T cells (sheet: HEK293 cell), titration of the anti-CI-M6PR 2G11 antibody (Abcam ab2733) [lower graph].
For assay [9], the target named is recombinant human domain 1-3His6 of the cation-independent mannose-6-phosphate receptor (human) (UniProt P11717). Put plainly: BLI exp 1, dissoc pH 5, bivalent model.
Assay [10] has the same target. Put plainly: BLI exp 1, dissoc pH 6, bivalent model.
Assay [11] shares this target. The assay can be described thus: BLI exp 2, dissoc pH 7, bivalent model.
Assay [12] concerns the target T1, recombinant human domain 1-3His6 of the cation-independent mannose-6-phosphate receptor (human, UniProt P11717 41-467).
T1 construct: Biotinylated (NHS-PEG4-biotin) for BLI; Glycosylated; also called hDom1-3His6; hCI-M6PRD1-D3
The assay can be described thus: BLI, dissoc pH 5.5, mean of local fits. The procedure:
(§1) FIGS. 58 & 59. […] BLI was performed on an Octet Red96 (FortéBio) instrument in kinetics buffer (0.2 M Na₂HPO₄, 0.1 M Na⁺ citrate, 0.01% bovine serum albumin, 0.002% Tween-20). Biotinylated human domain₁₋₃His₆ was immobilized on Streptavidin SA biosensors (Sartorius) to a signal of 0.6 nm. […] Between assays, biosensors were regenerated by three times 10 s exposure to regeneration buffer (10 mM glycine pH 3). The degree of association and dissociation was measured in δ nm over time (s).
(§2) After loading, the tips were incubated with VHHs serially diluted in pH 7.4 kinetic buffer during the association phase and dissociation was performed at pH 7.4, pH 6.5, pH 6.0, pH 5.5 and pH 5.0. All biosensor tips were then regenerated before analysis of the subsequent VHH. Table 13 summarizes the kinetic parameters retrieved after processing and curve fitting of the BLI measurements. When both association and dissociation were performed at pH 7.4, a global fit was performed according to the 1:1 binding model of which the resulting affinity constants (KD), association (kₒₙ) and dissociation rate constants (koff) are shown. For measurements with association at pH 7.4 and dissociation at pH 6.5, 6.0, 5.5 and 5.0, the depicted dissociation rate constants are an average of the parameters determined by local curve fitting of the dissociation of 200, 100 and 50 nM VHH.

In assay [13] the target is T1, recombinant human domain 1-3His6 of the …. Put plainly: BLI, dissoc pH 6.5, mean of local fits. On the procedure:
as §1, §2

Assay [14] shares this target. The assay can be described thus: BLI, dissoc pH 5, mean of local fits. The procedure:
as §1, §2
In general terms: Biolayer interferometry detects binding as a change in optical thickness at a sensor tip.

The target is the same in assay [15]. The assay can be described thus: BLI, global 1:1 fit, pH 7.4. On the procedure: as §1, §2
For assay [16] the target is unchanged. The assay can be described thus: BLI, dissoc pH 6, mean of local fits. On the procedure:
as §1, §2

For assay [17] the target is unchanged. The assay can be described thus: in-tandem competitive BLI, biotinylated hDom1-3His6 on SA sensors, purified VHH.
Assay [18] shares this target. The assay can be described thus: in-tandem competitive BLI, biotinylated hDom1-3His6 on SA sensors, periplasmic extract of E. coli (concentration not given). On the procedure:
FIGS. 50 & 51. […] In-tandem competitive BLI was performed on an Octet Red96 (FortéBio) instrument in kinetics buffer (1×PBS, 1 mg/ml bovine serum albumin, 0.02% Tween-20 and 0.05% sodium azide). Human CI-M6PR domain₁₋₃His₆ (0.5 mg/mL in 50 mM MES, 150 mM NaCl, pH 6.5) was incubated for 30 minutes at room temperature with EZ-Link™ NHS-PEG4-Biotin (1 mg, Thermo Fischer A39259) and NaHCO₃ (100 mM). Biotinylated human domain₁₋₃His₆ was purified using a Zeba spin desalting Column™ (7K MWCO, 2 mL, Thermo Fischer 89890) and immobilized on Streptavidin SA biosensors (Sartorius) to a signal of 0.5 nm. […] Between assays, biosensors were regenerated by three times 10 s exposure to regeneration buffer (10 mM glycine pH 3). Data were double reference-subtracted and aligned in Octet Data Analysis software v9.0 (FortéBio). Greyscale curves represent double reference-subtracted data.

Assay [19] has the same target. Put plainly: in-tandem competitive BLI, biotinylated hDom1-3His6 on SA sensors, purified VHH at 400 nM. On the procedure:
(§3) FIGS. 50 & 51. In-tandem competitive BLI of purified anti-CI-M6PR VHHs. In-tandem competitive BLI was performed on an Octet Red96 (FortéBio) instrument in kinetics buffer (1×PBS, 1 mg/ml bovine serum albumin, 0.02% Tween-20 and 0.05% sodium azide). Human CI-M6PR domain₁₋₃His₆ (0.5 mg/mL in 50 mM MES, 150 mM NaCl, pH 6.5) was incubated for 30 minutes at room temperature with EZ-Link™ NHS-PEG4-Biotin (1 mg, Thermo Fischer A39259) and NaHCO₃ (100 mM). Biotinylated human domain₁₋₃His₆ was purified using a Zeba spin desalting Column™ (7K MWCO, 2 mL, Thermo Fischer 89890) and immobilized on Streptavidin SA biosensors (Sartorius) to a signal of 0.5 nm. […] Between assays, biosensors were regenerated by three times 10 s exposure to regeneration buffer (10 mM glycine pH 3). Data were double reference-subtracted and aligned in Octet Data Analysis software v9.0 (FortéBio). Greyscale curves represent double reference-subtracted data.

For assay [20] the target is unchanged. The assay can be described thus: in-tandem competitive BLI, 400 nM. On the procedure:
as §3
FIG. 55. […] In-tandem competitive BLI was performed as described in FIG. 50.

Consider anti-CI-M6PR antibody (clone 2G11), for which the off-rate constant (koff) in assay [1] stood at 0.000389 s⁻¹; in assay [2] it was 0.000712 s⁻¹; in assay [3], 0.000534 s⁻¹; in [4] it was 0.000592 s⁻¹; in assay [6], 0.000794 s⁻¹; in assay [7], 0.000592 s⁻¹. Also, the koff worked out at 0.000363 s⁻¹ in [9], 0.000479 s⁻¹ in [10] and 0.00103 s⁻¹ in assay [11]. Besides, the kon came out at 35900 M⁻¹ s⁻¹ in [1]; 161 M⁻¹ s⁻¹ in assay [2]; 42600 M⁻¹ s⁻¹ in [3]; 215 M⁻¹ s⁻¹ in assay [4]; 60700 M⁻¹ s⁻¹ in assay [6]; 215 M⁻¹ s⁻¹ in assay [7]. The kon turned out to be 241 M⁻¹ s⁻¹ in [9], 204 M⁻¹ s⁻¹ in [10] and 31100 M⁻¹ s⁻¹ in [11]. Also, the Kd in assay [2] turned out to be 4430 nM; in assay [4], 2760 nM; in [6] it was 13.1 nM; in assay [7] it was 2760 nM; in [9], 1510 nM; in [10], 2350 nM. The EC50 (read off the curve) worked out at 0.6 nM in [5] and 0.2 nM in assay [8].

B1: anti-CI-M6PR VHH 1H52 (VHH)
VHH: QVQLQESGGGLVQPGGSLRLSCTASGFTWDSYVIGWFRQAPGKGREGVSCLDVDDGSIYYHDSAKGRFSISRDNAKNTVYLQMNSLKPEDTAVYYCAAVNRASMRFRRCLQVLRYDYWGQGTQVTVSS
notes: made in E. coli WK6, His-tag purified
In the case of B1, the koff in assay [12] was found to be 0.051 s⁻¹; in [13], 0.067 s⁻¹; in assay [14], 0.2 s⁻¹; in [15], 0.032 s⁻¹; in [16], 0.03 s⁻¹. Moreover, the Kd in assay [15] came out at 31 nM. Moreover, in [15], the association rate constant (kon) was 1e+06 M⁻¹ s⁻¹.

B2: 1H74 (VHH)
VHH: QVQLQESGGGLVQPGGSLRLACAASGFTLEDYSIGWFRQAPGKEREGVSCISSSDHSTYYADSVKGRFTISRDNAQNTVYLHMNSLKPEDTAVYYCAGRYSSLARIETNWHDYNYWGQGTQVTVSS
notes: also called anti-CI-M6PR VHH 1H74
On to B2, for which, in [17], the binding result is reported as “no binding (tested: 400 nM)”.

B3: anti-CI-M6PR VHH 2H79 (VHH)
VHH: QVQLQESGGGQVQAGDSLGLSCAASGGAFSTYHMGWFRQAPGKQRELVAAITRGGSSSTKYVDSVKGRFTISRDNAKNTMYLQMNSLQPDDTAVYYCAASPQGKWNALVGGTPDYWGQGTQVTVSS
Consider B3, for which the binding result in [18] is on record as “binds”.

B4: anti-CI-M6PR VHH 1H21 (VHH)
VHH: QVQLQESGGGLVQAGGSLRLSCVASGRTFSTLHMGWFHQAPGKERELVAAITRSGDTYYADFVKGRFTISRDNAKNTVYLQMISLKPEDTAVYYCAATGPGGWARLRAHEYDYWGQGTQVTVSS
Consider B4, for which, in assay [19], the binding result was “binds”.

B5: humanized VHH8 variant VHH8 h4 (VHH)
VHH: DVQLVESGGGLVQPGGSLRLSCEASGRTFNTYNWGWFRQAPGKEREFVAAIRWSSSKTSYADSVKGRFTISRDNSKNTVYLQMNSLRPEDTAVYYCAASIVDFTTNPSHFGSWGQGTLVTVSS
notes: made in E. coli
In the case of B5, the binding result in [20] was “binds”.

B6: humanized VHH8 variant VHH8 h5 (VHH)
VHH: DVQLVESGGGLVQAGGSLRLSCEASGRTFNTYNWGWFRQAPGKEREFVAAIRWSSSKTSYADSVKGRFTISRDNSKNTVYLQMNSLRPEDTAVYYCAASIVDFTTNPSHFGSWGQGTLVTVSS
notes: made in E. coli
Regarding B6, the binding result in assay [20] is reported as “binds”.

B7: anti-CI-M6PR VHH 1H37 (VHH)
VHH: QVQLQESGGGLVQPGGSLRLTCAPSGRTYSTYWMAWFRQAPGKEREIVARINWSDGSTFYTESVKGRFTISGDNAKNTVYLQMTNLKPEDTAVYYCLARTVVSLDDYWGQGTQVTVSS
Turning to B7, the binding result in [19] is “binds”.

B8: anti-CI-M6PR VHH 2H74 (VHH)
VHH: QVQLQESGGGLVQAGGSLRLTCAPSGRTYSTYWMAWFRQAPGKEREIVARINWSDGSTFYTESVKGRFTISGDNAKNTVYLQMTNLKPEDTAVYYCLARTVVSLDDYWGQGTQVTVSS
Turning to B8, the binding result in assay [18] was “binds”.

As a reminder, the koff is a measure of how fast the partners let go of each other. A word on the kon: it is the rate constant with which the complex forms. Usually EC50 (read off the curve) stands for the concentration that produces a half-maximal response. A lower EC50 (read off the curve) goes with a more potent agent.
